Results taken from patent publication US12679878B2, “CRF2 receptor agonists and their use in therapy” (SANOFI, priority 2020, dated 2026).
Starred links: 1 amine or outer side, 2 acyl side, 3 side chain; linkers in the order of their positions; H or OH if unused. Non-standard residues stand in square brackets, D forms with d. Groups on a side chain read outwards from the residue. No end group written: not given here. *: point of attachment. C18 diacid = O=C(O)CCCCCCCCCCCCCCCCC(=O)*; γGlu = O=C(O)[C@H](CCC(=O)[*:2])N[*:1]; Palmitoyl = CCCCCCCCCCCCCCCC(=O)*; AEEA = NCCOCCOCC(=O)O; Aib = CC(C)(N)C(=O)O

B1: peptide of SEQ ID NO: 225 (peptide)
peptide: IVLSLD[dV]PTKLK([γGlu-Palmitoyl])QKLLKQERQRKERE[Aib]AEKNKRILERV-NH2
B2: peptide of SEQ ID NO: 226 (peptide)
peptide: IVLSLD[dV]PIGLK([γGlu-Palmitoyl])QKLLKQQRQRKERQQAEKNKRILERV-NH2
modifications: N-terminus assumed
SMILES: CCCCCCCCCCCCCCCC(=O)N[C@@H](CCC(=O)NCCCC[C@H](NC(=O)[C@H](CC(C)C)NC(=O)CNC(=O)[C@@H](NC(=O)[C@@H]1CCCN1C(=O)[C@H](NC(=O)[C@H](CC(=O)O)NC(=O)[C@H](CC(C)C)NC(=O)[C@H](CO)NC(=O)[C@H](CC(C)C)NC(=O)[C@@H](NC(=O)[C@@H](N)[C@@H](C)CC)C(C)C)C(C)C)[C@@H](C)CC)C(=O)N[C@@H](CCC(N)=O)C(=O)N[C@@H](CCCCN)C(=O)N[C@@H](CC(C)C)C(=O)N[C@@H](CC(C)C)C(=O)N[C@@H](CCCCN)C(=O)N[C@@H](CCC(N)=O)C(=O)N[C@@H](CCC(N)=O)C(=O)N[C@@H](CCCNC(=N)N)C(=O)N[C@@H](CCC(N)=O)C(=O)N[C@@H](CCCNC(=N)N)C(=O)N[C@@H](CCCCN)C(=O)N[C@@H](CCC(=O)O)C(=O)N[C@@H](CCCNC(=N)N)C(=O)N[C@@H](CCC(N)=O)C(=O)N[C@@H](CCC(N)=O)C(=O)N[C@@H](C)C(=O)N[C@@H](CCC(=O)O)C(=O)N[C@@H](CCCCN)C(=O)N[C@@H](CC(N)=O)C(=O)N[C@@H](CCCCN)C(=O)N[C@@H](CCCNC(=N)N)C(=O)N[C@H](C(=O)N[C@@H](CC(C)C)C(=O)N[C@@H](CCC(=O)O)C(=O)N[C@@H](CCCNC(=N)N)C(=O)N[C@H](C(N)=O)C(C)C)[C@@H](C)CC)C(=O)O
B3: peptide of SEQ ID NO: 36 (peptide)
peptide: IVLSLD[dV]PTKLK([AEEA-AEEA-γGlu-C18 diacid])QKLLKQERQRK[Aib]REQAEKNKRILERV-NH2
modifications: N-terminus assumed
SMILES: CC[C@H](C)[C@H](N)C(=O)N[C@H](C(=O)N[C@@H](CC(C)C)C(=O)N[C@@H](CO)C(=O)N[C@@H](CC(C)C)C(=O)N[C@@H](CC(=O)O)C(=O)N[C@@H](C(=O)N1CCC[C@H]1C(=O)N[C@H](C(=O)N[C@@H](CCCCN)C(=O)N[C@@H](CC(C)C)C(=O)N[C@@H](CCCCNC(=O)COCCOCCNC(=O)COCCOCCNC(=O)CC[C@H](NC(=O)CCCCCCCCCCCCCCCCC(=O)O)C(=O)O)C(=O)N[C@@H](CCC(N)=O)C(=O)N[C@@H](CCCCN)C(=O)N[C@@H](CC(C)C)C(=O)N[C@@H](CC(C)C)C(=O)N[C@@H](CCCCN)C(=O)N[C@@H](CCC(N)=O)C(=O)N[C@@H](CCC(=O)O)C(=O)N[C@@H](CCCNC(=N)N)C(=O)N[C@@H](CCC(N)=O)C(=O)N[C@@H](CCCNC(=N)N)C(=O)N[C@@H](CCCCN)C(=O)NC(C)(C)C(=O)N[C@@H](CCCNC(=N)N)C(=O)N[C@@H](CCC(=O)O)C(=O)N[C@@H](CCC(N)=O)C(=O)N[C@@H](C)C(=O)N[C@@H](CCC(=O)O)C(=O)N[C@@H](CCCCN)C(=O)N[C@@H](CC(N)=O)C(=O)N[C@@H](CCCCN)C(=O)N[C@@H](CCCNC(=N)N)C(=O)N[C@H](C(=O)N[C@@H](CC(C)C)C(=O)N[C@@H](CCC(=O)O)C(=O)N[C@@H](CCCNC(=N)N)C(=O)N[C@H](C(N)=O)C(C)C)[C@@H](C)CC)[C@@H](C)O)C(C)C)C(C)C
B4: peptide of SEQ ID NO: 18 (peptide)
peptide: IVLSLD[dV]PTKLK([γGlu-Palmitoyl])QKLLKQERQRKEREQAEKNKRILERV-NH2
modifications: N-terminus assumed
SMILES: CCCCCCCCCCCCCCCC(=O)N[C@@H](CCC(=O)NCCCC[C@H](NC(=O)[C@H](CC(C)C)NC(=O)[C@H](CCCCN)NC(=O)[C@@H](NC(=O)[C@@H]1CCCN1C(=O)[C@H](NC(=O)[C@H](CC(=O)O)NC(=O)[C@H](CC(C)C)NC(=O)[C@H](CO)NC(=O)[C@H](CC(C)C)NC(=O)[C@@H](NC(=O)[C@@H](N)[C@@H](C)CC)C(C)C)C(C)C)[C@@H](C)O)C(=O)N[C@@H](CCC(N)=O)C(=O)N[C@@H](CCCCN)C(=O)N[C@@H](CC(C)C)C(=O)N[C@@H](CC(C)C)C(=O)N[C@@H](CCCCN)C(=O)N[C@@H](CCC(N)=O)C(=O)N[C@@H](CCC(=O)O)C(=O)N[C@@H](CCCNC(=N)N)C(=O)N[C@@H](CCC(N)=O)C(=O)N[C@@H](CCCNC(=N)N)C(=O)N[C@@H](CCCCN)C(=O)N[C@@H](CCC(=O)O)C(=O)N[C@@H](CCCNC(=N)N)C(=O)N[C@@H](CCC(=O)O)C(=O)N[C@@H](CCC(N)=O)C(=O)N[C@@H](C)C(=O)N[C@@H](CCC(=O)O)C(=O)N[C@@H](CCCCN)C(=O)N[C@@H](CC(N)=O)C(=O)N[C@@H](CCCCN)C(=O)N[C@@H](CCCNC(=N)N)C(=O)N[C@H](C(=O)N[C@@H](CC(C)C)C(=O)N[C@@H](CCC(=O)O)C(=O)N[C@@H](CCCNC(=N)N)C(=O)N[C@H](C(N)=O)C(C)C)[C@@H](C)CC)C(=O)O
B5: peptide of SEQ ID NO: 43 (peptide)
peptide: IVLSLDVPIKLK([AEEA-AEEA-γGlu-C18 diacid])QILLEQAKQKKLRAQAETNVRILERV-NH2
modifications: N-terminus assumed
SMILES: CC[C@H](C)[C@H](N)C(=O)N[C@H](C(=O)N[C@@H](CC(C)C)C(=O)N[C@@H](CO)C(=O)N[C@@H](CC(C)C)C(=O)N[C@@H](CC(=O)O)C(=O)N[C@H](C(=O)N1CCC[C@H]1C(=O)N[C@H](C(=O)N[C@@H](CCCCN)C(=O)N[C@@H](CC(C)C)C(=O)N[C@@H](CCCCNC(=O)COCCOCCNC(=O)COCCOCCNC(=O)CC[C@H](NC(=O)CCCCCCCCCCCCCCCCC(=O)O)C(=O)O)C(=O)N[C@@H](CCC(N)=O)C(=O)N[C@H](C(=O)N[C@@H](CC(C)C)C(=O)N[C@@H](CC(C)C)C(=O)N[C@@H](CCC(=O)O)C(=O)N[C@@H](CCC(N)=O)C(=O)N[C@@H](C)C(=O)N[C@@H](CCCCN)C(=O)N[C@@H](CCC(N)=O)C(=O)N[C@@H](CCCCN)C(=O)N[C@@H](CCCCN)C(=O)N[C@@H](CC(C)C)C(=O)N[C@@H](CCCNC(=N)N)C(=O)N[C@@H](C)C(=O)N[C@@H](CCC(N)=O)C(=O)N[C@@H](C)C(=O)N[C@@H](CCC(=O)O)C(=O)N[C@H](C(=O)N[C@@H](CC(N)=O)C(=O)N[C@H](C(=O)N[C@@H](CCCNC(=N)N)C(=O)N[C@H](C(=O)N[C@@H](CC(C)C)C(=O)N[C@@H](CCC(=O)O)C(=O)N[C@@H](CCCNC(=N)N)C(=O)N[C@H](C(N)=O)C(C)C)[C@@H](C)CC)C(C)C)[C@@H](C)O)[C@@H](C)CC)[C@@H](C)CC)C(C)C)C(C)C

Key:
[1] = target: T1, CRF1R receptor (anti-target) (UniProt P34998 24-415, limits assumed); test: cell-based or functional assay
T1 sequence (looked up): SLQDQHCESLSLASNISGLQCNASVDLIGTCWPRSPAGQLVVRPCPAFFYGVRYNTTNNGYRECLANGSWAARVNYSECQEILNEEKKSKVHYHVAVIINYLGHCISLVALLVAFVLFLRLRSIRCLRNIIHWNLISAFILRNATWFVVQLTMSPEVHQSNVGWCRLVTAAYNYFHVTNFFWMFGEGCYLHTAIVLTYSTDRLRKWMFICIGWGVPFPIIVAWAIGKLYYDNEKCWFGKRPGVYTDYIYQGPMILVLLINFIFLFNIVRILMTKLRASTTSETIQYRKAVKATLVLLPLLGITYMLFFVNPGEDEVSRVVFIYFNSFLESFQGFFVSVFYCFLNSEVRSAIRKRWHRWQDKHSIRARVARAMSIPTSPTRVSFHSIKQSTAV

rat CRF2R α receptor = rat CRF2R α receptor (rat, UniProt P47866 20-411); test: cell-based or functional assay
Chain of rat CRF2R α receptor (P47866 20-411): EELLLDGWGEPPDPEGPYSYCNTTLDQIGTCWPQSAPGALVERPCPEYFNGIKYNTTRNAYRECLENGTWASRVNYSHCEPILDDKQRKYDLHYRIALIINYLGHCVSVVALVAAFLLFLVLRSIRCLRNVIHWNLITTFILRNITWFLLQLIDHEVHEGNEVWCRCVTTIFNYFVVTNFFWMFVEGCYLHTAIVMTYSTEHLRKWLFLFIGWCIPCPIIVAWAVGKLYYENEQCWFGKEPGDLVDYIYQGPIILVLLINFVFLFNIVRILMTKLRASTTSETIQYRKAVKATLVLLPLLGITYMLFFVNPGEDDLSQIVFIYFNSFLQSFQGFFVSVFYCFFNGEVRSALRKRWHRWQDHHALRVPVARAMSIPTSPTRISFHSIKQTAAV

| Binder | EC50 [nM] 0% HSA (cAMP, HTRF) [1] [nM] | Emax (%) (100% = Sauvagine at 100 nM) [1] | EC50 [nM], 0% HSA (cAMP, A7R5 cells) (rat CRF2R α receptor) [nM] |
| --- | --- | --- | --- |
| B1 | 24.2 | 58.9 | – |
| B2 | 96.2 | 84 | – |
| B3 | – | – | 13.3 |
| B4 | – | – | 0.02 |
| B5 | – | – | 11.5 |
